Results on 50 sequences are retold here after the domain aggregation screens of Martell et al. (2025).

The nature of this series: soluble fraction after stress (log2 fold change); higher = more stays soluble; pooled small domains, quantitative proteomics. The settings on record: stress: pH 4. Put shortly: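 After pH 4 stress, pooled custom libraries of small protein domains were quantified with high-throughput quantitative proteomics. Aggregation propensity is taken from the fold change in each domain's soluble amount following the acid stress. The scale is log2, where higher values mean more stayed soluble.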
“HMAGQWQQDQNGWKYKTDNGDHMKNTWYQDSDSRWYYFGPDGYMKSSTMTPDGYVVGSDGAWIE”: the “soluble fraction (log2)” value was -1.63.
In the case of “HMAGSGDLNAKYLASIPAPMKAKILKAVANHYGVSISEFEEEVTDKDAEALYEYIPTRSMAVQVLRDMKG” it was 0.199.
In the case of “HMAGSGLPVPRFVSLADDRVNARAGPGFRFPINWVYLRKGFPVEVVDEFGPWRRIRDIDGVAAWIHLSMLS” it was -0.848.
In the case of “HMAGTAFPVRIMLKGIDRIGLLNEITGYISVAMGVNMRKLNLSTEDGIFEGYIDMLVHDRTVLESMIDNL” it was 0.22.
On to “HMAGTELASIKEIQSLVDRSEEALSARNFFWPKDKSESMLLSFRNMFSRLKLTKMDVQIFHGIFKVMEKS”, for which the “soluble fraction (log2)” value came to 0.0341.
The value for “HMAGVSVTSLTTFWRLAADTPDTPSGADDPSGWSRTEPSIPDGYEGKLYRTIRTIMSDGTATWTSPD” was 0.0531; that for “HMAGYDTYMVDRDAELLPWLLETLQRESRSKVKATLQGNGIKVNGKRVTQFNYPLKAGMKVSVSKSK” was 0.129.
In the case of “HMAHILDLMELKQILRLHMDGLSNRRISDTLGIHRNTINSYVSQFKASKHGIEELLKLSDYELAQLFP”, the “soluble fraction (log2)” value is -1.39.
In the case of “HMAHRYQQIADDLGRRVEAGEFAAGRLLPSEATLSGQYKASRVTVRKALEALRTDGLVESRQGFGWFVAAD” it was 0.262; in that of “HMAIADQPISAEHFDKLRQVLNSNTQETIASAKQHWASISNNAEFTNENVTRTLLEEMLAFIKSAS”, -0.887.
In the case of “HMAIDVQELARTRLRSLRTTLGYSLDELAARTHLSPSTISRLETGKRSLSLDVVVPLAQALHVSLDVLFEA” it was -0.666.
The value for “HMAIEGIFEKYQRRSDQLIPILQDVQKEFGYIAPESVRHISRYLRISENQIFGVSSFYAQFRFT” was -0.422; that for “HMAIGTDPETGISVVADGTDFIWTRSGATSTIFLRLDSENSYILNVKQGDFEVIDYELGEGQENAINIDQS” was -0.463; that for “HMAIPEVDPAKQGVSATQLAALDALAHRNAGEGRVAGMVNVVIRNGEIVYYKATGPRHIDGGAPLKSTDLF” was 0.0394.
Turning to “HMAIQGVRLYERTLETGDPWLDRPLSTLSTGTRLIILVRRGGDVLIPKGDTVLLAGDTLVINDS”, the “soluble fraction (log2)” value was -1.94.
The value for “HMAIRPDAAVSSHAVKQRLQSLIRAEDPAAPLSDEALRLALSALGIGVSRRAVAKYRAEMGIPSSSQRKK” was 0.168.
In the case of “HMAISQYGSQSDEVTKIQTRLKAWGYFDGPVTAYYGSQTTEAVKKFQQKHGLSATGVADAKTLELIGLP” it was 0.056; in that of “HMAITLEQFLSVNPHIRNNLYGNAVELVKDKDFSVLSDKLKASSKWANEPSLYKILSHYDEIIS”, 0.207; in that of “HMAKDSQSADVLQAIFDGSKVLNGLALDQDMRWDLINGLVMSGRLGVEAIEAEAAKLAKLVEELEFR”, -1.21.
For “HMAKETLRANIKDYIQKQIASGVYRPGDRIVETQLAREMNVSQAPVREAILELVSLGLLEERPYSGHMVRQ”, the “soluble fraction (log2)” value was -0.843.
On to “HMAKIKVFELKNQINSLIKNKIESKDIIDFIETNFGVKKSHSSALEENEANFIKNYFVHADKA”, for which the “soluble fraction (log2)” value is -0.141.
The value for “HMAKIPASTVVEIDGAPVVVAVRVNARARSYRLSIPHSGGPLLTLPPHGKWAEAEAFLLRHHNWLAARLHR” was 0.22; that for “HMAKQEPTDNGYDIYKVTASVLNVRNGAGTSYAVAYQLSKEDYVEVVSIDKGWAKLKDGKYVSADWITLYK” was -0.596; that for “HMAKRINVKLIMELSAGGLTQNEIASSRHFSKTSVNLVLKTARELNVSAADLREMSPEEAYRLFFPEK” was -0.0837.
Regarding “HMAKRKTEKTSVLEEIDGVGKARARALLARFGGLSGVKAASPEELRTVRGITPEIAENIRRYFQ”, the “soluble fraction (log2)” value turned out to be 0.134.
The value for “HMAKRMRNPNGYGSIVKLSGNRRNPYMVKVNTHMDERYYPVYDILGYYPTWADASIALAKYNDDPYNVS” was 0.0269; that for “HMAKRQATIVYEGTNVRSGPSTSSAIVKRTGKGESYPIVSTKGDWYEIKLSNGDSAYVASWVVQTVD” was -0.871; that for “HMAKRYFVTTGVRVRTKPDTANSEVLTVLDEGSEIDYKGDYNNEWVKINYNGQEAYIAKQYVRSEE” was -0.13.
In the case of “HMAKSDLNYLDFKSKLEAGEIAKASVIRNEDTFKVTLQNGEVYNVTSPDYEDFRKELLEAGVDIQVSK” it was 0.022; in that of “HMAKSMRHLIVPSRETSLWRDKLSTNGWLSKGYGIHNLDDYRGIPLNETAPKIIEGLEITELEPIS”, -0.755.
For “HMAKTALEQAQAMVAAYVAAEQQILLGKEVRMGGPGIDRWLRFEDLQEVRAGRKEWESTVTRLQNTAA”, the “soluble fraction (log2)” value was -0.769.
Turning to “HMAKTGMDALVGRRVVLTKAIAGEGEGLVAVDGDVWRATSPAGSAIPKGTEVRITGYRSIVLEVEPI”, the “soluble fraction (log2)” value stood at 0.139.
The value for “HMAKYEVVAKDIISRIKQNEFETTLKLPTEDEMIEYYQVSRNTVRSALKLLTSQGIIFSRQGSGFYIRQRS” was -0.117.
On to “HMALALSGVDLNRNRLTISWQTSKGVSYRVQRSSDLQSWTDVGAERLGNGNRLSHTQALNTESAFLRVII”, for which the “soluble fraction (log2)” value is -0.674.
Regarding “HMALEGTLARVSVRIPESGVGEIIFSLGGVRRSEAARSVSGRAIPRGTEVVILSYERGIATVQPYEELLTN”, the “soluble fraction (log2)” value is -0.256.
For the sequence “HMALEVPGIAKDKIYRIFGQLYERQQKWEDAIDYYNRAVFFTLSGTDMILYQEDLSRVKQKISL”, the “soluble fraction (log2)” value is -0.152.
The value for “HMALKRVAPQGEDKLSAQLDGVEFDKLIPWLGMLEHDHRIAIVNLSIDRANATGLVNARVIL” was 0.251.
The value for “HMALKSGVIAHAVDDAVMRGLNVFTVSDDGSIVSMKDNDIVLGKDGKSPYSVSEWLEELKPNVPHWFG” was -0.256; that for “HMALKSYEDMVGKTGVAYTVLRPSGKVIINDELFDATARSGMIEKGNEVIIYDYKNAQLIVEK” was -0.518.
The value for “HMALPASLSPREREIVSLISQGKTNSEIASLLYISVPTVKTHISNIFQKTGVSNRTSLLNRLRMS” was -0.0542; that for “HMALPHEIKQKWLEEIMTMLRSSDSVTINKVYLHFPENKSHWVDEILTDLSNTHMITRQHDFIRLKN” was -0.221.
Consider “HMALQDKYKQLVDTATASGVANLQVREQDGVLYIDGEAPSGSVKDQLWDIYGKIDPNFLSGDVVMNINV”, for which the “soluble fraction (log2)” value is -1.12.
In the case of “HMALQLPFSFAKRHKVLVESAHEPVKVYHTPSTDFAVFAEVRRFLDQTFVLEEIAENRFEELLTSSFQRD” it was -1.46; in that of “HMALSETIYRLRTEHGLSQGDLAAELDVSRQSISKWETGSSVPELDKLVAMSRLFGVSLDELVLGE”, -0.584; in that of “HMALSLPDDMTIVRKDGSSLEVRLKSRTVTEIHFERISDSETFQFSIDQLDETTRELVEQYPVM”, -0.407.
In the case of “HMALTAEVLRSLIKHHGLGQSIQRTAKAVGLSASTVKKYFDRIAAANLTWQEAKSRTQEELIASLQPT” it was 0.107; in that of “HMALTARDLGLTHRQADVLHLVLQGKPVKLIARDLGLAEGTVKSHVSAVLRALNVTTRTQAIVAAGRLGLM”, at least 0.43; in that of “HMAMDITLPLAEVRRQSLEQIERQYLNELMSKHLGRINRAAEAAGITTRQLHKLLTKYSIRKEDFK”, 0.0354.
With “HMAMESDELETLVDQLIVDHPDEWSRFVGGDDGDRKKMQGFFTGQIMKATKGQADGRAVAQLLGQKSA”, the “soluble fraction (log2)” value is -0.337.
In the case of “HMAMLSKREAEILKLTAKGHSSTDIAQRLTISVNTVEFHRRRIMQKLNAANVAEAVGKAAELGLFF” it was -0.47.
